Test results from patent US20250297032A1 (CONCEPT TO MEDICINE BIOTECH, published 2025).
Where a chain is given by its changes, count along the chain named.

T1: human FAPα on CHO-K1-hFAPα cells (human, UniProt Q12884 1-760)
T1 construct: whole, on cells; also called cell-surface FAPα
T1 sequence (looked up): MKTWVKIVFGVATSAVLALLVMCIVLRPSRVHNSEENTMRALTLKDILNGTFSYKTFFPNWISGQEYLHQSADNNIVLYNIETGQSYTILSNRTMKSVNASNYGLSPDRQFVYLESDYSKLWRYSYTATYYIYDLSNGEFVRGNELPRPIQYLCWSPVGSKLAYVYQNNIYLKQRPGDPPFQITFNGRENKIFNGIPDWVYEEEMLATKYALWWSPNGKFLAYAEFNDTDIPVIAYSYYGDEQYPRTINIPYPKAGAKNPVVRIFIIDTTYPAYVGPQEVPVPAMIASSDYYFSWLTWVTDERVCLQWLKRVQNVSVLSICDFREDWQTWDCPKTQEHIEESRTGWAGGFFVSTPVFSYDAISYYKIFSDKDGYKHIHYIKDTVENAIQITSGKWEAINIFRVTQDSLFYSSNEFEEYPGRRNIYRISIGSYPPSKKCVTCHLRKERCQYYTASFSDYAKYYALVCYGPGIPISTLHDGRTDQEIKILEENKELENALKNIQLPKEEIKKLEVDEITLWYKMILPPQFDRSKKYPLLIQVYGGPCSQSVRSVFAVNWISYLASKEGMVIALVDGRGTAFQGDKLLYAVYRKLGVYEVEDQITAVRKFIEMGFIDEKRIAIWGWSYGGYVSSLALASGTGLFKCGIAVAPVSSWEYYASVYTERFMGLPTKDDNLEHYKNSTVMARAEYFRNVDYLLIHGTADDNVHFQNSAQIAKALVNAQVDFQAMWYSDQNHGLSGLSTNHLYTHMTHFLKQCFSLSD

T2: mouse FAPα-His protein (mouse, UniProt P97321 26-761, limits assumed)
T2 construct: not shown: His tag
T2 sequence (looked up): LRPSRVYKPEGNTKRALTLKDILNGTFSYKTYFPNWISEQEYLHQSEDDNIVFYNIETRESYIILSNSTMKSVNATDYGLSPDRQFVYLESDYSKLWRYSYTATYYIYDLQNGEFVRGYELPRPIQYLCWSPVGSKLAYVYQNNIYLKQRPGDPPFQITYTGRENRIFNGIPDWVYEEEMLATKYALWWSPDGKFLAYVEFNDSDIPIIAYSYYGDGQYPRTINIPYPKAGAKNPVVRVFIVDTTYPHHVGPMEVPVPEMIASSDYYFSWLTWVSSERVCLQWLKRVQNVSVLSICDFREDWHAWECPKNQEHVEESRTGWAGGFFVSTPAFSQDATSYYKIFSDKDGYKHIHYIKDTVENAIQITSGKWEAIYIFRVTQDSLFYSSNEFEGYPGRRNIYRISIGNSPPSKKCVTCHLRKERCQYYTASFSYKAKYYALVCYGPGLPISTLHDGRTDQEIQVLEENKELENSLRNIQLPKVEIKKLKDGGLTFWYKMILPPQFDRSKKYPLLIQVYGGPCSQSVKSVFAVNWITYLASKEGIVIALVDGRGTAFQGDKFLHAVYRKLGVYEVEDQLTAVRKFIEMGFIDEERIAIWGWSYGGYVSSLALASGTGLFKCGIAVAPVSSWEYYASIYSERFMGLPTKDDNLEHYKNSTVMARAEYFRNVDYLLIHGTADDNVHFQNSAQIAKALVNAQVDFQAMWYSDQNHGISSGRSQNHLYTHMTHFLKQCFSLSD

B1: G14 (antibody, V domains shown)
VH: QVQLLESGGGVVQPGRSLRLSCAASGFTFSSYAMHWVRQAPGKGLEWVAFISHDGNRNSYADSVRGRFTISRDNSKNTLYLQMNSLRAEDTAVYYCARDLGYYNGFSYWGQGTLVTVSA
VL: DIVMTQSPSSVSASVGDRVTITCRASQGISSWLAWYQQKPGKAPKLLIYAASSLQSGVPSRFSGSGSGTDFTLTISSLQPEDFATYYCQQANSFPPTFGPGTKVDIK
notes: Full human antibody from a Fab phage library; Tested as a mAb (detected with anti-human IgG, captured on Protein A); also called FAP-G14; FAP-G14-Bio (biotin-conjugated form)
B2: I37 (antibody, V domains shown)
VH: QLQLVESGGGLVQPGGSLRLSCAASGFTFSSYAMSWVRQAPGKGLEWVSAISGSGGSTYYADSVKGRFTISRDNSKNTLYLQMNSLRAEDTAVYYCARDKPWGGSFDYWGQGTLVTVSA
VL: B1 VL with V3Q, M4L, V11L, P96V
notes: Tested as a mAb; also called FAP-I37
B3: I30 (antibody, V domains shown)
VH: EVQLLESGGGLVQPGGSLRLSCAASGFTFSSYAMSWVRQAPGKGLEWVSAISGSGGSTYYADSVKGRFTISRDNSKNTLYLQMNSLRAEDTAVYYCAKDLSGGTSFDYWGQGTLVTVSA
VL: B1 VL with D1A, V3R, M4L, P100G, D105E
notes: Tested as a mAb; also called 130; FAP-I30
B4: J40 (antibody, V domains shown)
VH: EVQLLESGGGLVQPGGSLRLSCAASGFTFSSYAMSWVRQAPGKGLEWVSAISGSGGSTYYADSVKGRFTISRDNSKNTLYLQMNSLRTDDTAVYYCARDLTTSTGWESWGQGTLVTVSA
VL: B1 VL with D1N, V3Q, P100Q, V104L, D105E
notes: Tested as a mAb; also called FAP-J40; FAP-J40-Bio (biotin-conjugated form)

Tests used:
[1] = molecular target: T1, human FAPα on CHO-K1-hFAPα cells; test: flow cytometry on CHO-K1-hFAPα cells
Procedure: To evaluate the cell-based binding property to human FAPα, the tested antibodies were analyzed for their binding to CHO-K1-hFAPα by FACS. A total number of 1×10⁵ CHO-K1-hFAPα cells in each well were incubated with 4-fold serial diluted antibodies starting from 3 μg/ml for 30 minutes at 4° C. in FACS buffer. After wash by FACS buffer, PE conjugated-anti-human IgG antibody was added to each well and incubated at 4° C. for 30 minutes. After wash, MFI of PE was evaluated by MACSQuant Analyzer 16.

mouse FAPα-His protein = molecular target: T2, mouse FAPα-His protein; test: ELISA, coated mouse FAPα-His
Procedure: Briefly, microtiter plates were coated with mouse FAPα-His protein at 0.5 ug/ml in PBS, 100 μl/well at 4° C. overnight, then blocked with 150 μl/well of 1% BSA. Three-fold dilutions of tested antibodies starting from 1 μg/ml were added to each well and incubated for 1 hour at 37° C. The plates were washed with PBS/Tween and then incubated with Anti-Human IgG (H&L) (GOAT) Antibody Peroxidase Conjugated for 30 mins at 37° C. After washing, the plates were developed with TMB substrate and analyzed by spectrophotometer at OD 450 nm.

Row | Binder | EC50 [1] | EC50 (mouse FAPα-His protein)
1 | B1 | 0.073 ng/mL | –
2 | B2 | 0.057 ng/mL | 5.2 ng/mL
3 | B3 | 0.08 ng/mL | –
4 | B4 | 0.025 ng/mL | –
